Assay results as given in patent publication US6958321B2, “Isolation, characterization, cloning and use of a mushroom lectin” (The Regents of the University of Michigan, priority 2001, dated 2005).

Key:
Experiment in all cases: Agglutination of cells by Marasmius oreades lectin
Assay type in all cases: cell-based
[1] = test system: Cultured Ehrlich ascites tumor cells
Method: (§1) In some embodiments, blood group specificity of MOA is determined in hemagglutination assays (see Examples below). Briefly, formaldehyde-treated erythrocytes in V-well microtitre plates are used in a protocol as described in Mo et al. [J. Biol. Chem 275:10623 (2000)], herein incorporated by reference. […] Example 3, below, presents the data for agglutination activity against a variety of cell types. […] Biochemistry 22: 5290 (1983)].
(§2) Hemagglutination assays were carried out using formaldehyde-treated erythrocytes in V-well microtitre plates as described by Mo et al. [J. Biol. Chem 275:10623 (2000)], herein incorporated by reference. Titres were recorded as the greatest dilution of the lectin solution yielding visible agglutination. Agglutination of Ehrlich ascites tumor cells (grown in in vitro culture) was observed microscopically.
(§3) Hemagglutination activity was unchanged by extensive dialysis of the lectin and assay in metal-free buffer containing EDTA, indicating the absence of a divatent metal ion requirement. As noted in Example 2, subsequent assays and purifications routinely used metal-free buffers containing EDTA.

Human A erythrocytes = conditions: human type A erythrocytes
Method: as §1, §2, §3

Human B erythrocytes = test system: Human B erythrocytes
Method: as §1, §2, §3

Human O erythrocytes = conditions: human type O erythrocytes
Method: as §1, §2, §3

B1: MOA: M. oreades lectin (agglutinin) with binding specificity for Galα1,3Gal; single polypeptide of approximately 33 kDa (protein)
chain: MSLRRGIYHIENAGVPSAIDLKDGSSSDGTPIVGWQFTPDTINWHQLWLAEPIPNVADTFTLCNLFSGTYMDLYNGSSEAGTAVNGWQGTAFTTNPHQLWTIKKSSDGTSYKIQNYGSKTFVDLVNGDSSDGAKIAGWTGTWDEGNPHQKWYFNRMSVSSAEAQAAIARNPHIHGTYRGYILDGEYLVLPNATFTQIWKDSGLPGSKWREQIYDCDDFAIAMKAAVGKWGADSWKANGFAIFCGVMLGVNKAGDAAHAYNFTLTKDHADIVFFEPQNGGYLNDIGYDSYMAFY
agglutination [1]: readily agglutinated
hemagglutination activity (Human A erythrocytes): very little activity
hemagglutination activity (Human B erythrocytes): Strong
hemagglutination activity (Human O erythrocytes): very little activity
